The numbers were not newly measured in patent US20210100896A1, “METHODS AND COMPOSITIONS FOR STIMULATING THE IMMUNE SYSTEM” (University of Miami, priority 2017, published 2021), which cites them from elsewhere.

This series relates to tumor. Conditions: tumor bearing mice.

B1: Flt3L: cytokine that promotes hematopoietic progenitor commitment to the DC lineage (protein, UniProt P49771 27-235, looked up)
Fms-related tyrosine kinase 3 …: TQDCSFQHSPISSDFAVKIRELSDYLLQDYPVTVASNLQDEELCGGLWRLVLAQRWMERLKTVAGSKMQGLLERVNTEIHFVTKCAFQPPPSCLRFVQTNISRLLQETSEQLVALKPWITRQNFSRCLELQCQPDSSTLPPPWSPRPLEATAPTAPQPPLLLLLLLPVGLLLLAAAWCLHWQRTRRRTPRPGEQVPPVPSPQDLLLVEH
Consider B1, for which the “intratumoral accumulation of DC and tumor inhibition” value was “enhanced intratumoral accumulation of DC and tumor inhibition”.
